Experimental data taken from patent US20190276557A1 (APROGEN KIC, published 2019).

Biological target: recombinant protein carbonic anhydrase 12 (R&D Systems) (Homo sapiens (Human), UniProt O43570 25-291, limits assumed)
Sequence (O43570 25-291 limits assumed): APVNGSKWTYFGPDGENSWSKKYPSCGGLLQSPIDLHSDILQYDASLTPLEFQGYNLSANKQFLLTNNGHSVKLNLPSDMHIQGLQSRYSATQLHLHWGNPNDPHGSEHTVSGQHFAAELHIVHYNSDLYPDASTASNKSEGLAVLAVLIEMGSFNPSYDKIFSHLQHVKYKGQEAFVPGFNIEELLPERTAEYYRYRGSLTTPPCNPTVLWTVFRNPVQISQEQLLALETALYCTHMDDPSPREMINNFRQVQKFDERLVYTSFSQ

B1: clone ID 1 (phage displayed scFv) (scFv)
chain: EVQLVESGGGLVQPGGSLRLSCAASGYSYTDYNIYWVRQAPGKGLEWVGYIDPANGDTTYNQKFKGRATISVDKSKNTAYLQMNSLRAEDTAVYYCSRPIYYGAYWYFDVWGQGTLVTVSSDIQMTQSPSSLSASVGDRVTITCRASSPVTYMHWYQQKPGKAPKPWIYATSSLAPGVPSRFSGSGSGTDFTLTISSLQPEDFATYYCQQWSSNPLTFGQGTKVEIK
  ELISA signal relative to the 4B4 chimeric antibody: 1.5 times
